For 7 molecules, Kd results are on record in PMC12607895 (2025).

Sequences and labels used below:
B6: CD46 (receptor)
chain: CEEPPTFEAMELIGKPKPYYEIGERVDYKCKKGYFYIPPLATHTICDRNHTWLPVSDDACYRETCPYIRDPLNGQAVPANGTYEFGYQMHFICNEGYYLIGEEILYCELKGSVAIWSGKPPICEKVLCTPPPKIKNGKHTFSEVEVFEYLDAVTYSCDPAPGPDPFSLIGESTIYCGDNSVWSRAAPECKVVKCRFPVVENGKQISGFGKKFYYKATVMFECDKGFYLDGSDTIVCDSNSTWDPPVPKCLKVLPPSSTKPPALSHSVSTSSTTKSPASSASGPRPTYKPPVSNYPGYPKPEEGILDSLD

What all share (assay): SPR
For test [1], the target named is B6.
For test [2], the target named is HAdV-D113 hexon (human adenovirus D113 (HAdV-D113)).
For test [3], the target named is HAdV-B11 hexon (human adenovirus B11 (HAdV-B11)).
The target of test [4] is HAdV-D113 fiber knob (human adenovirus D113 (HAdV-D113)).
Test [5] addresses HAdV-D37 hexon (human adenovirus D37 (HAdV-D37)).
Test [6] concerns the target HAdV-D56 fiber knob (human adenovirus D56 (HAdV-D56)).

B1: HAdV-B11 fiber knob (domain or fragment)
chain: GLTFNSNNICIDDNINTLWTGVNPTEANCQIMNSSESNDCKLILTLVKTGALVTAFVYVIGVSNNFNMLTTHRNINFTAELFFDSTGNLLTRLSSLKTPLNHKSGQNMATGAITNAKGFMPSTTAYPFNDNSREKENYIYGTCYYTASDRTAFPIDISVMLNRRAINDETSYCIRITWSWNTGDAPEVQTSATTLVTSPFTFYYIREDD
modifications: trimer; knob limits by convention (last shaft residues to C-terminus) Source, isoform and limits not given; soluble extracellular domain assumed; N/O-glycosylated; amine-coupled to CM5 chip
By Kd is commonly meant the concentration at which binding is half-saturated. For the molecule B1, the Kd in test [1] came out at 1.14 nM. That is a single-digit nanomolar value.

B2: HAdV-D26 hexon (natural protein)
chain: ATPSMMPQWAYMHIAGQDASEYLSPGLVQFARATDTYFSLGNKFRNPTVAPTHDVTTDRSQRLTLRFVPVDREDTTYSYKARFTLAVGDNRVLDMASTYFDIRGVLDRGPSFKPYSGTAYNSLAPKGAPNPSQWETKEKQGTTGGVQQEKDVTKTFGVAATGGINITNQGLLLGTDETAENGKKDIYADKTFQPEPQVGEENWQENEAFYGGRALKKDTKMKPCYGSFARPTNEKGGQAKFKPVNEGEQPKDLDIDFAYFDVPGGSPPAGGSGEEYKADIILYTENVNLETPDTHVVYKPGTSDNSSEINLVQQSMPNRPNYIGFRDNFVGLMYYNSTGNMGVLAGQASQLNAVVDLQDRNTELSYQLLLDSLGDRTRYFSMWNSAVDSYDPDVRIIENHGVEDELPNYCFPLNGTGTNSTYQGVKITNGNDGAEESEWEKDDAISRQNQICKGNVYAMEINLQANLWKSFLYSNVALYLPDSYKYTPANVKLPANTNTYEYMNGRVVAPSLVDAYINIGARWSLDPMDNVNPFNHHRNAGLRYRSMLLGNGRYVPFHIQVPQKFFAIKNLLLLPGSYTYEWNFRKDVNMILQSSLGNDLRVDGASVRFDSVNLYATFFPMAHNTASTLEAMLRNDTNDQSFNDYLSAANMLYPIPAKATNVPISIPSRNWAAFRGWSFTRLKTKETPSLGSGFDPYFVYSGSIPYLDGTFYLNHTFKKVSIMFDSSVSWPGNDRLLTPNEFEIKRSVDGEGYNVAQCNMTKDWFLVQMLSHYNIGYQGFHVPEGYKDRMYSFFRNFQPMSRQVVDEINYKDYKAVTLPFQHNNSGFTGYLAPTMRQGQPYPANFPYPLIGQTAVPSVTQKKFLCDRVMWRIPFSSNFMSMGALTDLGQNMLYANSAHALDMTFEVDPMDEPTLLYLLFEVFDVVRVHQPHRGVIEAVYLRTPFSAGNATT
modifications: Source, isoform and limits not given; soluble extracellular domain assumed; N/O-glycosylated; amine-coupled to CM5 chip
As to B2, binding in test [1] was characterised by a dissociation constant (Kd) of 4240 nM.

B3: CD46 (receptor)
chain: CEEPPTFEAMELIGKPKPYYEIGERVDYKCKKGYFYIPPLATHTICDRNHTWLPVSDDACYRETCPYIRDPLNGQAVPANGTYEFGYQMHFICNEGYYLIGEEILYCELKGSVAIWSGKPPICEKVLCTPPPKIKNGKHTFSEVEVFEYLDAVTYSCDPAPGPDPFSLIGESTIYCGDNSVWSRAAPECKVVKCRFPVVENGKQISGFGKKFYYKATVMFECDKGFYLDGSDTIVCDSNSTWDPPVPKCLKVLPPSSTKPPALSHSVSTSSTTKSPASSASGPRPTYKPPVSNYPGYPKPEEGILDSLDVWVIAVIVIAIVVGVAVICVVPYRYLQRRKKKGTYLTDETHREVKFTSL
For B3, the Kd in test [2] stood at 4190 nM; in test [3], 210 nM; in test [4], 130 nM.

B4: HAdV-D37 fiber knob (domain or fragment)
chain: WNPKYDTRTLWTTPDTSPNCTIAQDKDSKLTLVLTKCGSQILANVSLIVVAGKYHIINNKTNPKIKSFTIKLLFNKNGVLLDNSNLGKAYWNFRSGNSNVSTAYEKAIGFMPNLVAYPKPSNSKKYARDIVYGTIYLGGKPDQPAVIKTTFNQETGCEYSITFNFSWSKTYENVEFETTSFTFSYIAQE
modifications: Source, isoform and limits not given; soluble extracellular domain assumed; N/O-glycosylated; amine-coupled to CM5 chip
For the molecule B4, in test [1], the Kd was found to be 2700 nM. This counts as single-digit micromolar.

B5: HAdV-C5 fiber knob (domain or fragment)
chain: TGAITVGNKNNDKLTLWTTPAPSPNCRLNAEKDAKLTLVLTKCGSQILATVSVLAVKGSLAPISGTVQSAHLIIRFDENGVLLNNSFLDPEYWNFRNGDLTEGTAYTNAVGFMPNLSAYPKSHGKTAKSNIVSQVYLNGDKTKPVTLTITLNGTQETGDTTPSAYSMSFSWDWSGHNYINEIFATSSYTFSYIAQE
modifications: trimer; limits by convention of the Ad5 knob structure 1KNB Source, isoform and limits not given; soluble extracellular domain assumed; N/O-glycosylated; amine-coupled to CM5 chip
B5 yielded a Kd in test [1] of 130 nM.
B6: the dissociation constant Kd in test [5] turned out to be 3090 nM; in test [6] it was 150 nM.

B7: HAdV-D56 hexon (natural protein)
chain: ATPSMMPQWAYMHIAGQDASEYLSPGLVQFARATDTYFSLGNKFRNPTVAPTHDVTTDRSQRLTLRFVPVDREDTTYSYKARFTLAVGDNRVLDMASTYFDIRGVLDRGPSFKPYSGTAYNSLAPKGAPNSSQWEQKKANAGEQKETHTYGVAPMGGENITISGLQIGTDTTNGKQDPIYANKLYQPEPQVGEENWQETEAFYGGRALKKETKMKPCYGSFARPTNEKGGQAKLRDPEKSQEDFDIDLAFFDTPGGTLTGGGTEYKADIVMCTENVNLETPDTHVVYKPGKDDDSSEINLVQQSMPNRPNYIGFRDNFVGLMYYNSTGNMGVLAGQASQLNAVVDLQDRNTELSYQLLLDSLGDRTRYFSMWNSAVDSYDPDVRIIENHGVEDELPNYCFPLDGSGTNAAYEGVKVKNGQDGDQESEWEKDTNVADRNQICKGNIYAMEINLQANLWKSFLYSNVALYLPDSYKYTPANVTLPTNTNTYEYMNGRVVAPSLVDAYINIGARWSLDPMDNVNPFNHHRNAGLRYRSMLLGNGRYVPFHIQVPQKFFAIKNLLLLPGSYTYEWNFRKDVNMILQSSLGNDLRVDGASVRFDSVNLYATFFPMAHNTASTLEAMLRNDTNDQSFNDYLSAANMLYPIPAKATNVPISIPSRNWAAFRGWSFTRLKTKETPSLGSGFDPYFVYSGSIPYLDGTFYLNHTFKKVSIMFDSSVSWPGNDRLLTPNEFEIKRSVDGEGYNVAQCNMTKDWFLVQMLSHYNIGYQGFHVPEGYKDRMYSFFRNFQPMSRQVVDEINYKDYKAVTLPFQHNNSGFTGYLAPTMRQGQPYPANFPYPLIGQTAVPSVTQKKFLCDRVMWRIPFSSNFMSMGALTDLGQNMLYANSAHALDMTFEVDPMDEPTLLYLLFEVFDVVRVHQPHRGVIEAVYLRTPFSAGNATT
modifications: Source, isoform and limits not given; soluble extracellular domain assumed; N/O-glycosylated; amine-coupled to CM5 chip
In turn, B7 displayed a Kd in test [1] of 6730 nM. In other words, the single-digit micromolar range.
